Experimental data as given in patent US20260167699A1 (Chugai, published 2026).

T1: FcγRIIa(R) extracellular domain, His-tagged (human, UniProt P12318 34-217)
T1 construct: extracellular domain; also called 2aR
T1 sequence: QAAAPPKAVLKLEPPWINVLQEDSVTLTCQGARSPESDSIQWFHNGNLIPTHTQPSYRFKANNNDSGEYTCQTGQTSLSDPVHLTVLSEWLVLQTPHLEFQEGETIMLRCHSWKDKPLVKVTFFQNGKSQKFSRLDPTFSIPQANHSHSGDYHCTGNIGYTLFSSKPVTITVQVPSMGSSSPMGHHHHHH

T2: FcγRIIb extracellular domain, His-tagged (human, UniProt P31994 43-217)
T2 construct: extracellular domain; also called 2b
T2 sequence: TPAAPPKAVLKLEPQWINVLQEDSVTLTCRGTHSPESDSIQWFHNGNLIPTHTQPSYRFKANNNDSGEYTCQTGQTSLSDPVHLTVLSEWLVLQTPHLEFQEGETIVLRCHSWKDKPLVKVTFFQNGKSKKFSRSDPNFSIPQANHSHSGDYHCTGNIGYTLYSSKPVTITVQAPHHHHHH

T3: FcγRIIa(H) extracellular domain, His-tagged (human, UniProt P12318 34-217)
T3 construct: extracellular domain; also called 2aH
T3 sequence: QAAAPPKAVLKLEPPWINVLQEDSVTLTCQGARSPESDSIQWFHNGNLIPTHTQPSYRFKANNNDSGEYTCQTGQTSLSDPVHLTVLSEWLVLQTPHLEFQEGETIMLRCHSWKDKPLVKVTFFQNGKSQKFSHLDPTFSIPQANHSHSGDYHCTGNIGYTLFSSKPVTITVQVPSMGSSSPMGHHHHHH


What was measured:
[1] = biological target: T1, FcγRIIa(R) extracellular domain, …; experiment: SPR, vs GpH7-A5/GpH7-B3/GpL16-k0 =100
[2] = biological target: T4, FcγRIa extracellular domain, His-tagged (human, UniProt P12314 16-292); experiment: SPR, vs GpH7-A5/GpH7-B3/GpL16-k0 =100
T4 construct: extracellular domain; also called 1a
T4 sequence (P12314 other isoform, or with tags, fused parts or gaps): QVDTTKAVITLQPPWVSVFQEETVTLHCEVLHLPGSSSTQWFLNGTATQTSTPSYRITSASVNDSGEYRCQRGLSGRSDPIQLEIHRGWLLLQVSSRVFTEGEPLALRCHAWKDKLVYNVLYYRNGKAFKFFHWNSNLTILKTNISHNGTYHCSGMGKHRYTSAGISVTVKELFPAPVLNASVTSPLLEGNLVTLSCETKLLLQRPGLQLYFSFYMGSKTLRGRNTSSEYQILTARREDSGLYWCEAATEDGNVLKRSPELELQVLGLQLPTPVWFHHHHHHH

[3] = biological target: T2, FcγRIIb extracellular domain, His-tagged; experiment: SPR, vs GpH7-A5/GpH7-B3/GpL16-k0 =100
[4] = biological target: T3, FcγRIIa(H) extracellular domain, …; experiment: SPR, vs GpH7-A5/GpH7-B3/GpL16-k0 =100
[5] = biological target: T5, FcγRIIIa extracellular domain, His-tagged (human, UniProt P08637 17-208); experiment: SPR, vs GpH7-A5/GpH7-B3/GpL16-k0 =100
T5 construct: extracellular domain; also called 3a
T5 sequence (P08637 other isoform, or with tags, fused parts or gaps): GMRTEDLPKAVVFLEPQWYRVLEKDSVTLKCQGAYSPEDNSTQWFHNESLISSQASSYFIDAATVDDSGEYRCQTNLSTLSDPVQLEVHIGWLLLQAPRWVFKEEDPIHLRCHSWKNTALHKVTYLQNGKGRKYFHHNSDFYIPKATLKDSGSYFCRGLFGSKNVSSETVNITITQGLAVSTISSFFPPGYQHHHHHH

[6] = biological target: T6, FcγRIIIa extracellular domain, C-terminal His tag (human, UniProt P08637 17-208); experiment: SPR, binding activity relative to GpH7-A5/GpH7-B3/GpL16-k0 (=100)
T6 construct: extracellular domain; also called 3a
T6 sequence (P08637 other isoform, or with tags, fused parts or gaps): as above

Binder	He/Con 3a [6] [%]	further results
GpH7-A5/GpH7-B3 variant H268_14T/GpL16-k0 (antibody, human IgG1, kappa) heavy 1: not shown heavy 2: not shown light: DIVMTQSPLSLPVTPGEPASISCQASESLVHSNRNTYLHWYLQKPGQSPQLLIYKVSNRFSGVPDRFSGSGSGTDFTLKISRVEAEDVGVYYCSQNTHVPPTFGQGTKVEIERTVAAPSVFIFPPSDEQLKSGTASVVCLLNNFYPREAKVQWKVDNALQSGNSQESVTEQDSKDSTYSLSSTLTLSKADYEKHKVYACEVTHQGLSSPVTKSFNRGEC		He/Con 2aR [1]: 100 % of control; He/Con 1a [2]: 108 % of control; He/Con 2b [3]: 90.3 % of control; He/Con 2aH [4]: 93.5 % of control; He/Con 3a [5]: 90.3 % of control
GpH7-A5/GpH7-B3 variant Y300_04F/GpL16-k0 (antibody, human IgG1, kappa, He Ab; copies: 1 + 1 + 2) heavy 1: not shown heavy 2: not shown light: DIVMTQSPLSLPVTPGEPASISCQASESLVHSNRNTYLHWYLQKPGQSPQLLIYKVSNRFSGVPDRFSGSGSGTDFTLKISRVEAEDVGVYYCSQNTHVPPTFGQGTKVEIERTVAAPSVFIFPPSDEQLKSGTASVVCLLNNFYPREAKVQWKVDNALQSGNSQESVTEQDSKDSTYSLSSTLTLSKADYEKHKVYACEVTHQGLSSPVTKSFNRGEC	100	
GpH7-A5/GpH7-B3 variant Y300_19Q/GpL16-k0 (antibody, human IgG1, kappa, He Ab; copies: 1 + 1 + 2) heavy 1: not shown heavy 2: not shown light: DIVMTQSPLSLPVTPGEPASISCQASESLVHSNRNTYLHWYLQKPGQSPQLLIYKVSNRFSGVPDRFSGSGSGTDFTLKISRVEAEDVGVYYCSQNTHVPPTFGQGTKVEIERTVAAPSVFIFPPSDEQLKSGTASVVCLLNNFYPREAKVQWKVDNALQSGNSQESVTEQDSKDSTYSLSSTLTLSKADYEKHKVYACEVTHQGLSSPVTKSFNRGEC	105	
GpH7-A5/GpH7-B3 variant Y300_09D/GpL16-k0 (antibody, human IgG1, kappa, He Ab; copies: 1 + 1 + 2) heavy 1: not shown heavy 2: not shown light: DIVMTQSPLSLPVTPGEPASISCQASESLVHSNRNTYLHWYLQKPGQSPQLLIYKVSNRFSGVPDRFSGSGSGTDFTLKISRVEAEDVGVYYCSQNTHVPPTFGQGTKVEIERTVAAPSVFIFPPSDEQLKSGTASVVCLLNNFYPREAKVQWKVDNALQSGNSQESVTEQDSKDSTYSLSSTLTLSKADYEKHKVYACEVTHQGLSSPVTKSFNRGEC	104	
GpH7-A5/GpH7-B3 variant Y300_16H/GpL16-k0 (antibody, human IgG1, kappa, He Ab; copies: 1 + 1 + 2) heavy 1: not shown heavy 2: not shown light: DIVMTQSPLSLPVTPGEPASISCQASESLVHSNRNTYLHWYLQKPGQSPQLLIYKVSNRFSGVPDRFSGSGSGTDFTLKISRVEAEDVGVYYCSQNTHVPPTFGQGTKVEIERTVAAPSVFIFPPSDEQLKSGTASVVCLLNNFYPREAKVQWKVDNALQSGNSQESVTEQDSKDSTYSLSSTLTLSKADYEKHKVYACEVTHQGLSSPVTKSFNRGEC	102	
GpH7-A5/GpH7-B3 variant Y300_02A/GpL16-k0 (antibody, human IgG1, kappa, He Ab; copies: 1 + 1 + 2) heavy 1: not shown heavy 2: not shown light: DIVMTQSPLSLPVTPGEPASISCQASESLVHSNRNTYLHWYLQKPGQSPQLLIYKVSNRFSGVPDRFSGSGSGTDFTLKISRVEAEDVGVYYCSQNTHVPPTFGQGTKVEIERTVAAPSVFIFPPSDEQLKSGTASVVCLLNNFYPREAKVQWKVDNALQSGNSQESVTEQDSKDSTYSLSSTLTLSKADYEKHKVYACEVTHQGLSSPVTKSFNRGEC	88.1	
GpH7-A5/GpH7-B3 variant Y300_06M/GpL16-k0 (antibody, human IgG1, kappa, He Ab; copies: 1 + 1 + 2) heavy 1: not shown heavy 2: not shown light: DIVMTQSPLSLPVTPGEPASISCQASESLVHSNRNTYLHWYLQKPGQSPQLLIYKVSNRFSGVPDRFSGSGSGTDFTLKISRVEAEDVGVYYCSQNTHVPPTFGQGTKVEIERTVAAPSVFIFPPSDEQLKSGTASVVCLLNNFYPREAKVQWKVDNALQSGNSQESVTEQDSKDSTYSLSSTLTLSKADYEKHKVYACEVTHQGLSSPVTKSFNRGEC	106	
GpH7-A5/GpH7-B3 variant Y300_13S/GpL16-k0 (antibody, human IgG1, kappa, He Ab; copies: 1 + 1 + 2) heavy 1: not shown heavy 2: not shown light: DIVMTQSPLSLPVTPGEPASISCQASESLVHSNRNTYLHWYLQKPGQSPQLLIYKVSNRFSGVPDRFSGSGSGTDFTLKISRVEAEDVGVYYCSQNTHVPPTFGQGTKVEIERTVAAPSVFIFPPSDEQLKSGTASVVCLLNNFYPREAKVQWKVDNALQSGNSQESVTEQDSKDSTYSLSSTLTLSKADYEKHKVYACEVTHQGLSSPVTKSFNRGEC	80.3	
GpH7-A5/GpH7-B3 variant Y300_03V/GpL16-k0 (antibody, human IgG1, kappa, He Ab; copies: 1 + 1 + 2) heavy 1: not shown heavy 2: not shown light: DIVMTQSPLSLPVTPGEPASISCQASESLVHSNRNTYLHWYLQKPGQSPQLLIYKVSNRFSGVPDRFSGSGSGTDFTLKISRVEAEDVGVYYCSQNTHVPPTFGQGTKVEIERTVAAPSVFIFPPSDEQLKSGTASVVCLLNNFYPREAKVQWKVDNALQSGNSQESVTEQDSKDSTYSLSSTLTLSKADYEKHKVYACEVTHQGLSSPVTKSFNRGEC	83.8	
GpH7-A5/GpH7-B3 variant Y300_07I/GpL16-k0 (antibody, human IgG1, kappa, He Ab; copies: 1 + 1 + 2) heavy 1: not shown heavy 2: not shown light: DIVMTQSPLSLPVTPGEPASISCQASESLVHSNRNTYLHWYLQKPGQSPQLLIYKVSNRFSGVPDRFSGSGSGTDFTLKISRVEAEDVGVYYCSQNTHVPPTFGQGTKVEIERTVAAPSVFIFPPSDEQLKSGTASVVCLLNNFYPREAKVQWKVDNALQSGNSQESVTEQDSKDSTYSLSSTLTLSKADYEKHKVYACEVTHQGLSSPVTKSFNRGEC	103	
GpH7-A5/GpH7-B3 variant Y300_14T/GpL16-k0 (antibody, human IgG1, kappa, He Ab; copies: 1 + 1 + 2) heavy 1: not shown heavy 2: not shown light: DIVMTQSPLSLPVTPGEPASISCQASESLVHSNRNTYLHWYLQKPGQSPQLLIYKVSNRFSGVPDRFSGSGSGTDFTLKISRVEAEDVGVYYCSQNTHVPPTFGQGTKVEIERTVAAPSVFIFPPSDEQLKSGTASVVCLLNNFYPREAKVQWKVDNALQSGNSQESVTEQDSKDSTYSLSSTLTLSKADYEKHKVYACEVTHQGLSSPVTKSFNRGEC	92.8	
GpH7-A5/GpH7-B3 variant Y300_10E/GpL16-k0 (antibody, human IgG1, kappa, He Ab; copies: 1 + 1 + 2) heavy 1: not shown heavy 2: not shown light: DIVMTQSPLSLPVTPGEPASISCQASESLVHSNRNTYLHWYLQKPGQSPQLLIYKVSNRFSGVPDRFSGSGSGTDFTLKISRVEAEDVGVYYCSQNTHVPPTFGQGTKVEIERTVAAPSVFIFPPSDEQLKSGTASVVCLLNNFYPREAKVQWKVDNALQSGNSQESVTEQDSKDSTYSLSSTLTLSKADYEKHKVYACEVTHQGLSSPVTKSFNRGEC	113	
GpH7-A5/GpH7-B3 variant Y300_18N/GpL16-k0 (antibody, human IgG1, kappa, He Ab; copies: 1 + 1 + 2) heavy 1: not shown heavy 2: not shown light: DIVMTQSPLSLPVTPGEPASISCQASESLVHSNRNTYLHWYLQKPGQSPQLLIYKVSNRFSGVPDRFSGSGSGTDFTLKISRVEAEDVGVYYCSQNTHVPPTFGQGTKVEIERTVAAPSVFIFPPSDEQLKSGTASVVCLLNNFYPREAKVQWKVDNALQSGNSQESVTEQDSKDSTYSLSSTLTLSKADYEKHKVYACEVTHQGLSSPVTKSFNRGEC	96	
GpH7-A5/GpH7-B3 variant Y300_11K/GpL16-k0 (antibody, human IgG1, kappa, He Ab; copies: 1 + 1 + 2) heavy 1: not shown heavy 2: not shown light: DIVMTQSPLSLPVTPGEPASISCQASESLVHSNRNTYLHWYLQKPGQSPQLLIYKVSNRFSGVPDRFSGSGSGTDFTLKISRVEAEDVGVYYCSQNTHVPPTFGQGTKVEIERTVAAPSVFIFPPSDEQLKSGTASVVCLLNNFYPREAKVQWKVDNALQSGNSQESVTEQDSKDSTYSLSSTLTLSKADYEKHKVYACEVTHQGLSSPVTKSFNRGEC	63.7	
GpH7-A5/GpH7-B3 variant Y300_01G/GpL16-k0 (antibody, human IgG1, kappa, He Ab; copies: 1 + 1 + 2) heavy 1: not shown heavy 2: not shown light: DIVMTQSPLSLPVTPGEPASISCQASESLVHSNRNTYLHWYLQKPGQSPQLLIYKVSNRFSGVPDRFSGSGSGTDFTLKISRVEAEDVGVYYCSQNTHVPPTFGQGTKVEIERTVAAPSVFIFPPSDEQLKSGTASVVCLLNNFYPREAKVQWKVDNALQSGNSQESVTEQDSKDSTYSLSSTLTLSKADYEKHKVYACEVTHQGLSSPVTKSFNRGEC	88.6	
GpH7-A5/GpH7-B3 variant Y300_08L/GpL16-k0 (antibody, human IgG1, kappa, He Ab; copies: 1 + 1 + 2) heavy 1: not shown heavy 2: not shown light: DIVMTQSPLSLPVTPGEPASISCQASESLVHSNRNTYLHWYLQKPGQSPQLLIYKVSNRFSGVPDRFSGSGSGTDFTLKISRVEAEDVGVYYCSQNTHVPPTFGQGTKVEIERTVAAPSVFIFPPSDEQLKSGTASVVCLLNNFYPREAKVQWKVDNALQSGNSQESVTEQDSKDSTYSLSSTLTLSKADYEKHKVYACEVTHQGLSSPVTKSFNRGEC	114	
GpH7-A5/GpH7-B3 variant Y300_20W/GpL16-k0 (antibody, human IgG1, kappa, He Ab; copies: 1 + 1 + 2) heavy 1: not shown heavy 2: not shown light: DIVMTQSPLSLPVTPGEPASISCQASESLVHSNRNTYLHWYLQKPGQSPQLLIYKVSNRFSGVPDRFSGSGSGTDFTLKISRVEAEDVGVYYCSQNTHVPPTFGQGTKVEIERTVAAPSVFIFPPSDEQLKSGTASVVCLLNNFYPREAKVQWKVDNALQSGNSQESVTEQDSKDSTYSLSSTLTLSKADYEKHKVYACEVTHQGLSSPVTKSFNRGEC	101	
